From patent US20230357348A1 (AstraZeneca / MedImmune, published 2023)
Starred links: 1 amine or outer side, 2 acyl side, 3 side chain; linkers in the order of their positions; H or OH if unused. Non-standard residues stand in square brackets, D forms with d. Groups on a side chain read outwards from the residue. Primed or numbered codes have the meaning given here. No end group written: not given here. *: point of attachment. (PEG)2″ = polyethylene glycol 2 linker unit; C20 diacid = O=C(O)CCCCCCCCCCCCCCCCCCC(=O)*; C18 diacid = O=C(O)CCCCCCCCCCCCCCCCC(=O)*; Heptadecanoyl = CCCCCCCCCCCCCCCCC(=O)*; γGlu = O=C(O)[C@H](CCC(=O)[*:2])N[*:1]; Stearoyl = CCCCCCCCCCCCCCCCCC(=O)*; Palmitoyl = CCCCCCCCCCCCCCCC(=O)*; αMeF = C[C@](N)(Cc1ccccc1)C(=O)O; Myristoyl = CCCCCCCCCCCCCC(=O)*; (PEG)2 = polyethylene glycol 2; PEG2′ = polyethylene glycol 2; AEEA = NCCOCCOCC(=O)O; Aib = CC(C)(N)C(=O)O

Key:
[1] = target: human glucagon receptor (hGCGR) (human, UniProt P47871 26-477); test: cell-based or functional assay
Sequence of human glucagon receptor (hGCGR) (P47871 26-477): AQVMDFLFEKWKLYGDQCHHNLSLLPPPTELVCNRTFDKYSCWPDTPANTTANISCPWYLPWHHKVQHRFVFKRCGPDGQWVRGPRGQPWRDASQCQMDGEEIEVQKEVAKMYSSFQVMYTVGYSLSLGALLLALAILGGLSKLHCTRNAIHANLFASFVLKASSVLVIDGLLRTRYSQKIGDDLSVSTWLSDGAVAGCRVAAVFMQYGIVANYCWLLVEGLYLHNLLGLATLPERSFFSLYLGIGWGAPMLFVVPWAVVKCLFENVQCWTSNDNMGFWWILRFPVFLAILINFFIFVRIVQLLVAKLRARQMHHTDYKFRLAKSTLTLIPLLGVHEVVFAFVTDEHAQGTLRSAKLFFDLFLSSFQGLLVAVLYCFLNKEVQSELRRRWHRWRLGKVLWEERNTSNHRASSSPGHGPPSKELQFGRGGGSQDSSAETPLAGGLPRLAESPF

[2] = target: human GLP-1 receptor (hGLP-1R) (human, UniProt P43220 24-463); test: cell-based or functional assay

B1: Peptide 12 (peptide)
peptide: H[Aib]HGS[αMeF]TSDVSK[αMeF]LDSK([AEEA-AEEA-γGlu-C18 diacid])AARDFVQ[Aib]IANT-NH2
modifications: N-terminus assumed
SMILES: CC[C@H](C)[C@H](NC(=O)C(C)(C)NC(=O)[C@H](CCC(N)=O)NC(=O)[C@@H](NC(=O)[C@H](Cc1ccccc1)NC(=O)[C@H](CC(=O)O)NC(=O)[C@H](CCCNC(=N)N)NC(=O)[C@H](C)NC(=O)[C@H](C)NC(=O)[C@H](CCCCNC(=O)COCCOCCNC(=O)COCCOCCNC(=O)CC[C@H](NC(=O)CCCCCCCCCCCCCCCCC(=O)O)C(=O)O)NC(=O)[C@H](CO)NC(=O)[C@H](CC(=O)O)NC(=O)[C@H](CC(C)C)NC(=O)[C@](C)(Cc1ccccc1)NC(=O)[C@H](CCCCN)NC(=O)[C@H](CO)NC(=O)[C@@H](NC(=O)[C@H](CC(=O)O)NC(=O)[C@H](CO)NC(=O)[C@@H](NC(=O)[C@](C)(Cc1ccccc1)NC(=O)[C@H](CO)NC(=O)CNC(=O)[C@H](Cc1c[nH]cn1)NC(=O)C(C)(C)NC(=O)[C@@H](N)Cc1c[nH]cn1)[C@@H](C)O)C(C)C)C(C)C)C(=O)N[C@@H](C)C(=O)N[C@@H](CC(N)=O)C(=O)N[C@H](C(N)=O)[C@@H](C)O
In the case of B1, the “hGluc-R EC50 (pM)” value [1] is reported as 47.7 pM and the “hGLP-1R EC50 (pM)” value [2] is reported as 14.5 pM.

With HSQGS[αMeF]TSDVSK[αMeF]LDSK([(PEG)2-(PEG)2-γGlu-γGlu-Palmitoyl])AAQD[αMeF]VQ[Aib]LEAGG-NH2 [Peptide 79] the “hGluc-R EC50 (pM)” value [1] was 10.7 pM and the “hGLP-1R EC50 (pM)” value [2] was 1.73 pM.

For H[Aib]QGS[αMeF]TSDVSKILDSK([PEG2′-PEG2′-γGlu-Palmitoyl])AAQD[αMeF]VQ[Aib]IINT-NH2 [Peptide 128], the “hGluc-R EC50 (pM)” value [1] was 4.7 pM and the “hGLP-1R EC50 (pM)” value [2] was 0.788 pM.

B2: Peptide 14 (peptide)
peptide: H[Aib]HGS[αMeF]TSDVSK[αMeF]LDSK([AEEA-AEEA-γGlu-γGlu-C20 diacid])AARD[αMeF]VQ[Aib]IANT-NH2
modifications: N-terminus assumed
SMILES: CC[C@H](C)[C@H](NC(=O)C(C)(C)NC(=O)[C@H](CCC(N)=O)NC(=O)[C@@H](NC(=O)[C@](C)(Cc1ccccc1)NC(=O)[C@H](CC(=O)O)NC(=O)[C@H](CCCNC(=N)N)NC(=O)[C@H](C)NC(=O)[C@H](C)NC(=O)[C@H](CCCCNC(=O)COCCOCCNC(=O)COCCOCCNC(=O)CC[C@H](NC(=O)CC[C@H](NC(=O)CCCCCCCCCCCCCCCCCCC(=O)O)C(=O)O)C(=O)O)NC(=O)[C@H](CO)NC(=O)[C@H](CC(=O)O)NC(=O)[C@H](CC(C)C)NC(=O)[C@](C)(Cc1ccccc1)NC(=O)[C@H](CCCCN)NC(=O)[C@H](CO)NC(=O)[C@@H](NC(=O)[C@H](CC(=O)O)NC(=O)[C@H](CO)NC(=O)[C@@H](NC(=O)[C@](C)(Cc1ccccc1)NC(=O)[C@H](CO)NC(=O)CNC(=O)[C@H](Cc1c[nH]cn1)NC(=O)C(C)(C)NC(=O)[C@@H](N)Cc1c[nH]cn1)[C@@H](C)O)C(C)C)C(C)C)C(=O)N[C@@H](C)C(=O)N[C@@H](CC(N)=O)C(=O)N[C@H](C(N)=O)[C@@H](C)O
In the case of B2, the “hGluc-R EC50 (pM)” value [1] is reported as 462 pM and the “hGLP-1R EC50 (pM)” value [2] is reported as 93.8 pM.

HSQGS[αMeF]TSDVSK[αMeF]LDSK([(PEG)2-(PEG)2-γGlu-γGlu-Palmitoyl])AAQD[αMeF]VQ[Aib]IAN-NH2 [Peptide 87] was tested, and the “hGluc-R EC50 (pM)” value [1] was 8.46 pM and the “hGLP-1R EC50 (pM)” value [2] was 1.29 pM.

For HSQGS[αMeF]TSDVSKILDSK([PEG2′-PEG2′-γGlu-Stearoyl])AAQD[αMeF]VQ[Aib]IINT-NH2 [Peptide 120], the “hGluc-R EC50 (pM)” value [1] was 2.62 pM and the “hGLP-1R EC50 (pM)” value [2] was 1.81 pM.

In the case of HSQGS[αMeF]TSDVSKILDSK([PEG2′-PEG2′-γGlu-Palmitoyl])AAQD[αMeF]VQ[Aib]IINT-NH2 [Peptide 121], the “hGluc-R EC50 (pM)” value [1] is reported as 1.2 pM and the “hGLP-1R EC50 (pM)” value [2] is reported as 1.5 pM.

HSQGS[αMeF]TSDVSK[Aib]LDSK([(PEG)2″-(PEG)2″-γGlu-γGlu-Stearyl])AAQD[αMeF]VQ[Aib]IAN-NH2 [Peptide 100] was tested, and the “hGluc-R EC50 (pM)” value [1] was 40.5 pM and the “hGLP-1R EC50 (pM)” value [2] was 0.258 pM.

For H[Aib]QGS[αMeF]TSDVSKILDSK([PEG2′-PEG2′-γGlu-Stearoyl])AAQD[αMeF]VQ[Aib]IINT-NH2 [Peptide 127], the “hGluc-R EC50 (pM)” value [1] was 12.6 pM and the “hGLP-1R EC50 (pM)” value [2] was 0.998 pM.

With H[Aib]QGS[αMeF]TSDVSKILDSK([PEG2′-PEG2′-γGlu-Myristoyl])AAQD[αMeF]VQ[Aib]IINT-NH2 [Peptide 129] the “hGluc-R EC50 (pM)” value [1] was 4.1 pM and the “hGLP-1R EC50 (pM)” value [2] was 0.462 pM.

HSQGS[αMeF]TSDVSKILDSK([PEG2′-PEG2′-γGlu-γGlu-Palmitoyl])AAQD[αMeF]VQ[Aib]IINT-NH2 [Peptide 118] was tested, and the “hGluc-R EC50 (pM)” value [1] was 1.2 pM and the “hGLP-1R EC50 (pM)” value [2] was 1.07 pM.

In the case of H[Aib]HGS[αMeF]TSDVSK[αMeF]LDSK([AEEA-AEEA-γGlu-C18 diacid])AAQDFVQ[Aib]IANT-NH2 [Peptide 11], the “hGluc-R EC50 (pM)” value [1] is reported as 118 pM and the “hGLP-1R EC50 (pM)” value [2] is reported as 157 pM.

With HSQGS[αMeF]TSDVSKILDSKAAQD[αMeF]VQ[Aib]IAN-NH2 (not fully specified (residue 17)) [Peptide 111] the “hGluc-R EC50 (pM)” value [1] was 2.09 pM and the “hGLP-1R EC50 (pM)” value [2] was 1.92 pM.

In the case of HSQGS[αMeF]TSDVSK(Ac)[Aib]LDSK([PEG2′-PEG2′-γGlu-γGlu-Stearyl])AAQD[αMeF]VQ[Aib]IAN-NH2 [Peptide 110], the “hGluc-R EC50 (pM)” value [1] is reported as 48.5 pM and the “hGLP-1R EC50 (pM)” value [2] is reported as 0.627 pM.

For HSQGS[αMeF]TSDVSK[αMeF]LDSKAAQD[αMeF]VQ[Aib]LEAGG-NH2 (not fully specified (residue 17)) [Peptide 80], the “hGluc-R EC50 (pM)” value [1] was 9.18 pM and the “hGLP-1R EC50 (pM)” value [2] was 1.03 pM.

With HSQGS[αMeF]TSDVSK[αMeF]LDSK([(PEG)2-(PEG)2-γGlu-γGlu-Heptadecanoyl])AAQD[αMeF]VQ[Aib]IAN-NH2 [Peptide 88] the “hGluc-R EC50 (pM)” value [1] was 6.47 pM and the “hGLP-1R EC50 (pM)” value [2] was 1.04 pM.

In the case of HSQGS[αMeF]TSDVSKILDSK([PEG2′-PEG2′-γGlu-γGlu-Myristoyl])AAQD[αMeF]VQ[Aib]IINT-NH2 [Peptide 119], the “hGluc-R EC50 (pM)” value [1] is reported as 1.7 pM and the “hGLP-1R EC50 (pM)” value [2] is reported as 1.39 pM.

B3: Peptide 13 (peptide)
peptide: H[Aib]HGS[αMeF]TSDVSK[αMeF]LDSK([AEEA-AEEA-γGlu-C18 diacid])AARD[αMeF]VQ[Aib]IANT-NH2
modifications: N-terminus assumed
SMILES: CC[C@H](C)[C@H](NC(=O)C(C)(C)NC(=O)[C@H](CCC(N)=O)NC(=O)[C@@H](NC(=O)[C@](C)(Cc1ccccc1)NC(=O)[C@H](CC(=O)O)NC(=O)[C@H](CCCNC(=N)N)NC(=O)[C@H](C)NC(=O)[C@H](C)NC(=O)[C@H](CCCCNC(=O)COCCOCCNC(=O)COCCOCCNC(=O)CC[C@H](NC(=O)CCCCCCCCCCCCCCCCC(=O)O)C(=O)O)NC(=O)[C@H](CO)NC(=O)[C@H](CC(=O)O)NC(=O)[C@H](CC(C)C)NC(=O)[C@](C)(Cc1ccccc1)NC(=O)[C@H](CCCCN)NC(=O)[C@H](CO)NC(=O)[C@@H](NC(=O)[C@H](CC(=O)O)NC(=O)[C@H](CO)NC(=O)[C@@H](NC(=O)[C@](C)(Cc1ccccc1)NC(=O)[C@H](CO)NC(=O)CNC(=O)[C@H](Cc1c[nH]cn1)NC(=O)C(C)(C)NC(=O)[C@@H](N)Cc1c[nH]cn1)[C@@H](C)O)C(C)C)C(C)C)C(=O)N[C@@H](C)C(=O)N[C@@H](CC(N)=O)C(=O)N[C@H](C(N)=O)[C@@H](C)O
In the case of B3, the “hGluc-R EC50 (pM)” value [1] is reported as 44 pM and the “hGLP-1R EC50 (pM)” value [2] is reported as 15.9 pM.

B4: Peptide 109 (peptide)
peptide: HSQGS[αMeF]TSDVSK(Ac)[Aib]LDSK([AEEA-AEEA-γGlu-C18 diacid])AAQD[αMeF]VQ[Aib]IAN-NH2
modifications: N-terminus assumed
SMILES: CC[C@H](C)[C@H](NC(=O)C(C)(C)NC(=O)[C@H](CCC(N)=O)NC(=O)[C@@H](NC(=O)[C@](C)(Cc1ccccc1)NC(=O)[C@H](CC(=O)O)NC(=O)[C@H](CCC(N)=O)NC(=O)[C@H](C)NC(=O)[C@H](C)NC(=O)[C@H](CCCCNC(=O)COCCOCCNC(=O)COCCOCCNC(=O)CC[C@H](NC(=O)CCCCCCCCCCCCCCCCC(=O)O)C(=O)O)NC(=O)[C@H](CO)NC(=O)[C@H](CC(=O)O)NC(=O)[C@H](CC(C)C)NC(=O)C(C)(C)NC(=O)[C@H](CCCCNC(C)=O)NC(=O)[C@H](CO)NC(=O)[C@@H](NC(=O)[C@H](CC(=O)O)NC(=O)[C@H](CO)NC(=O)[C@@H](NC(=O)[C@](C)(Cc1ccccc1)NC(=O)[C@H](CO)NC(=O)CNC(=O)[C@H](CCC(N)=O)NC(=O)[C@H](CO)NC(=O)[C@@H](N)Cc1c[nH]cn1)[C@@H](C)O)C(C)C)C(C)C)C(=O)N[C@@H](C)C(=O)N[C@@H](CC(N)=O)C(N)=O
B4 was tested, and the “hGluc-R EC50 (pM)” value [1] was > 26800 pM and the “hGLP-1R EC50 (pM)” value [2] was 698 pM.

For HSQGS[αMeF]TSDVSKILDSK([PEG2′-PEG2′-γGlu-Myristoyl])AAQD[αMeF]VQ[Aib]IINT-NH2 [Peptide 122], the “hGluc-R EC50 (pM)” value [1] was 0.857 pM and the “hGLP-1R EC50 (pM)” value [2] was 1.42 pM.

H[Aib]QGS[αMeF]TSDVSKILDSK([PEG2′-PEG2′-γGlu-γGlu-Palmitoyl])AAQD[αMeF]VQ[Aib]IINT-NH2 [Peptide 125] was tested, and the “hGluc-R EC50 (pM)” value [1] was 6.68 pM and the “hGLP-1R EC50 (pM)” value [2] was 0.575 pM.
